The values that follow come from the supplement of paper PMC7125110.

± gives the standard error. For part of these data: Variants at the floor of the assay were thinned out.

First the molecules themselves.
B1: glmS ribozyme (parent)
chain: AUAAAAGCGCCAGAACUACAGAAAUGUAGUUGACGAGGAGGAGGUUUAUCGAAUUUUCGGCGGAUGCCUCCAAA

Holding throughout (settings): with glucosamine-6-phosphate
The variants in data set [1] derive from B1. The data set can be described thus: kcat; higher = faster cleavage; RNA array. Put shortly: (§1)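 Glucosamine-6-phosphate (40 μM to 10 mM) in HEPES/KCl/Mg(OAc)2 buffer was flowed over sequenced MiSeq chips, and tiles were imaged over ~14 h. Barcoded ribozyme variants there had been transcribed in situ by E. coli RNA polymerase and were tracked through a hybridised Cy3 probe at 37 °C. One- or two-exponential decay fits to per-tile medians, normalised to baseline and to non-cleaving reference variants, gave kobs. kcat and KM came from weighted Michaelis–Menten fits across concentrations.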

In data set [2] the parent is B1. Put plainly: self-cleavage kobs at 640 uM GlcN6P; higher = faster cleavage; RNA array. In short, it runs like this: as §1
In data set [3] the parent is B1. Put plainly: self-cleavage kobs at 2500 uM GlcN6P; higher = faster cleavage; RNA array. In short, it runs like this:
as §1

Variants of B1 are the subject of data set [4]. The data set can be described thus: KM; higher = weaker cofactor use; RNA array. In short, it runs like this: as §1
In data set [5] the parent is B1. Put plainly: self-cleavage kobs at 160 uM GlcN6P; higher = faster cleavage; RNA array. In short, it runs like this: as §1
Variants of B1 are the subject of data set [6]. Put plainly: self-cleavage kobs at 10000 uM GlcN6P; higher = faster cleavage; RNA array. In short, it runs like this:
as §1

The variants in data set [7] derive from B1. The data set can be described thus: self-cleavage kobs at 40 uM GlcN6P; higher = faster cleavage; RNA array. Put shortly: as §1

Consider AUAAAAGCGCCAGGACUACAGAAAUGUAGUUGACGAGGAGGAGGUUUAUCGAAUUUUCGGCGGAUGCAGCCAAA [A14G C68A U69G], for which the turnover number (kcat) in data set [1] was found to be 0.000118 ± 2.9e-05 s⁻¹. In addition, the “self-cleavage kobs at 640 uM GlcN6P” value in data set [2] was found to be 0.000112 ± 2.8e-05 s⁻¹. Also, the “self-cleavage kobs at 2500 uM GlcN6P” value in data set [3] was determined as 9.76e-05 ± 1.8e-05 s⁻¹.

Take AUAAAAGCGCCAGAACUACAGAAAUGUAGUUAACGAGGAGGAGGUUUAUCGAAAUUUCGGCGGAUGGCUCCAAA [G32A U54A C67G]: the kcat in data set [1] came to 0.000168 ± 2.5e-05 s⁻¹. In data set [4], the KM is 216 ± 100 µM. Further, the “self-cleavage kobs at 160 uM GlcN6P” value in data set [5] worked out at 8.09e-05 ± 1.6e-05 s⁻¹. Moreover, the “self-cleavage kobs at 2500 uM GlcN6P” value in data set [3] was found to be 0.000137 ± 2.7e-05 s⁻¹. Moreover, in data set [6], the “self-cleavage kobs at 10000 uM GlcN6P” value is 0.00018 ± 3.3e-05 s⁻¹.

Turning to AUAAAAGCGCCAGAACUACAGAAAUGUAGUUGACGAGGAGGAGGUUUAUCGAAUUUUCGGAGGUUGCCUCGAAA [C61A A64U C71G], in data set [1], the kcat was 1.67e-05 ± 3.2e-06 s⁻¹.

Regarding AUAAAAGCGCCAGAACUACAGAAAUGUAGAUGACGACGAGGAGGUUUAUCGAAUUUUCGGCGGAUGCCUCCAAA [U30A G37C], in data set [1], the kcat is less than 1e-05 s⁻¹. Besides, the “self-cleavage kobs at 40 uM GlcN6P” value in data set [7] is less than 1e-05 s⁻¹. Moreover, the “self-cleavage kobs at 160 uM GlcN6P” value in data set [5] was less than 1e-05 s⁻¹. In data set [2], the “self-cleavage kobs at 640 uM GlcN6P” value was less than 1e-05 s⁻¹.

For the variant AUAAAAGCGCCAGAGCUACAGAAAUGUAGUUAACGAGGAGGAGGUUUAUCGAAUUUUCGGCGGAUGCCUGCAAA [A15G G32A C70G], in data set [1], the kcat amounted to 9.72e-05 ± 1.2e-05 s⁻¹. For the same variant, the “self-cleavage kobs at 160 uM GlcN6P” value in data set [5] worked out at 0.000115 ± 3.5e-05 s⁻¹. The “self-cleavage kobs at 640 uM GlcN6P” value in data set [2] turned out to be 0.000107 ± 2.6e-05 s⁻¹. The “self-cleavage kobs at 2500 uM GlcN6P” value in data set [3] came to 7.81e-05 ± 3e-05 s⁻¹. In addition, in data set [6], the “self-cleavage kobs at 10000 uM GlcN6P” value came to 9.41e-05 ± 1.1e-05 s⁻¹.

On to AUAAAAGCGCCAGAACUACAGAAAUGUAGUCGACGAGGAAGAGGUUUAUCGAAUUUUCGGCGGAUGCCUCCAAA [U31C G40A], for which the kcat in data set [1] was found to be 0.00072 ± 0.00018 s⁻¹. Besides, the Michaelis constant (KM) in data set [4] was 1300 ± 550 µM. For the same variant, the “self-cleavage kobs at 160 uM GlcN6P” value in data set [5] was found to be 6.18e-05 ± 1.5e-05 s⁻¹. Moreover, the “self-cleavage kobs at 640 uM GlcN6P” value in data set [2] was 0.000297 ± 4.4e-05 s⁻¹. Further, the “self-cleavage kobs at 2500 uM GlcN6P” value in data set [3] came to 0.000647 ± 0.00012 s⁻¹. Moreover, in data set [6], the “self-cleavage kobs at 10000 uM GlcN6P” value is 0.000532 ± 0.0001 s⁻¹.

For the variant AUAAAAGCGCCAGAACUACAGAAAUGUAGUUGACGAGGAGGAGGUUUAUCGAAUUUUCGGCAGAUGCCUGCAAA [G62A C70G], the kcat in data set [1] was 4.83e-05 ± 2.2e-05 s⁻¹. The “self-cleavage kobs at 40 uM GlcN6P” value in data set [7] is less than 1e-05 s⁻¹. Moreover, the “self-cleavage kobs at 640 uM GlcN6P” value in data set [2] is 4.71e-05 ± 1.5e-05 s⁻¹. In addition, in data set [6], the “self-cleavage kobs at 10000 uM GlcN6P” value is less than 1e-05 s⁻¹.

With AUAAAAGCGCCAGAAUUACAGAAAUGUAGUUGACGAGGAGGAGGUUUAUCGAAUUUUCGGCGGAUGCCUGCAAA [C16U C70G], the kcat in data set [1] is 0.000316 ± 9.7e-05 s⁻¹. Moreover, in data set [7], the “self-cleavage kobs at 40 uM GlcN6P” value came to 4.19e-05 ± 6.7e-06 s⁻¹. In addition, the “self-cleavage kobs at 160 uM GlcN6P” value in data set [5] was 9.18e-05 ± 8.2e-06 s⁻¹. For the same variant, the “self-cleavage kobs at 640 uM GlcN6P” value in data set [2] amounted to 0.000186 ± 1.6e-05 s⁻¹. Further, the “self-cleavage kobs at 2500 uM GlcN6P” value in data set [3] was 0.000619 ± 0.00016 s⁻¹. In addition, the “self-cleavage kobs at 10000 uM GlcN6P” value in data set [6] was 0.000497 ± 0.00011 s⁻¹.

As to AUAAAAGCGCCAGAACUACAGAAAUGUAGUUGACGAGGAGGAGGUUUAUCGGAUUUUCGGCGGAUGCAUCCAAA [A52G C68A], in data set [1], the catalytic constant (kcat) was 2.06e-05 ± 5.7e-06 s⁻¹.

In the case of AUAAAAGCGUCAGAACUACAGAAAUGUAGUUAACGAGGAGGAGGUUUAUCGAAUUUUCGGCGGAUGCCUCCAAA [C10U G32A], the kcat in data set [1] was determined as 2.81e-05 ± 1.1e-06 s⁻¹. Moreover, in data set [7], the “self-cleavage kobs at 40 uM GlcN6P” value is less than 1e-05 s⁻¹. The “self-cleavage kobs at 2500 uM GlcN6P” value in data set [3] came to 2.53e-05 ± 9.9e-06 s⁻¹. For the same variant, in data set [6], the “self-cleavage kobs at 10000 uM GlcN6P” value came to 2.81e-05 ± 7.9e-06 s⁻¹.

The kcat is the number of substrate molecules converted per active site and unit of time at saturation. As a reminder, the KM is the substrate concentration at which the rate is half of its maximum.
